Test results from the nanobody polyreactivity screen of Harvey et al. (2022).

Assay: yeast display, Sf9 membrane polyspecificity reagent, FACS + sequencing; frameworks hold sequencing errors
Summary of the method: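 A nanobody's polyreactivity label depends on the gate it was sorted from. Yeast display cells were stained with 10% biotinylated, detergent-solubilized Sf9 membrane reagent for 1 hour at 4 °C, enriched on streptavidin microbeads and sorted by FACS. The low and high (top ~1%) gates were set on anti-HA fluorescence for expression and streptavidin fluorescence for reagent binding.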

QVQLHESGGGLVQAGGSLRLSCAASGTISVTYNMGWYRQAPGKEREFVAGNSTGATTNYADSVKGRFTISRDNAKKTVYLQMNSLKPEDTAVYYCAAHIYRQDHFYYWGQGTQVTVSS
polyreactivity (PSR sort gate): low polyreactivity

QVQLHESGGGLVQAGGSLRQSCAASGTISYAGPMGWYRKAPGKEREFVAGIGVGSNTNYADSVKGRYTIIRDNAKNTVYLQMNSLKPEDTAVNYCAVGGYAPLGRPYWGLGTQVTVSS
polyreactivity (PSR sort gate): low polyreactivity

QVQLHESGGGLVQPGGGLRLSCAPSGSISSTGFMGWNRKAPGKEREPVAAIAPGTTTYYADSVKGRFTISRDNAKNTVYLQMNSLRPEDTAVYYCAVFTDNRVAFLYWGQGTQVTVSS
polyreactivity (PSR sort gate): low polyreactivity

QVQLHESGGVQAGGSLRLSCAASGYISRSDVMGWYRQAPGKERELVATINNGTITYYADSVKGRFTISRDNAKNTVYLQMNSLKPEDTAVHYCAVVQSDTDSLYYWGQGTQVTVSS
polyreactivity (PSR sort gate): low polyreactivity

QVQLHESGVGLVQAGGSLRLSCASSGTISYAGPMGWYRQAPGKEREFVAGIGVGSNTNYADSVKGRYTIIRDNAKNTVYLQMNSLKPEDTAVYYCAVGGYAPLGRPYWGQGTQVTVSS
polyreactivity (PSR sort gate): low polyreactivity

QVQLHESVGRLVQEGGGLRVSCAASGSISSTGFMGWSRQAPGKEGEPVAAIAPGTTTYYADSVKGRFTISRDNAKNTVYLQMNCLRPEDTAVYYCAVYTDNRVAFLYWGQGTQVTVSS
polyreactivity (PSR sort gate): low polyreactivity

QVQLIESGGGLVQAGGSLRLSCAASGIIFYDYAMGWYRQAPGKERELVATITSGGSTNYADSVKGRFTISRDNAKNTVYLQMNSLKPEDTAVYYCAAGRGLILGGVYGYDYWGQGTQVTVSS
polyreactivity (PSR sort gate): low polyreactivity

QVQLIESGGGLVQAGGSLRLSCAASGYTFGAYAMGWYRQAPGKERELVAGITFIGGSTYYADSVKGRFTISRDNAKNTVYLQMNSLKPEDTAVYYCAAPIAFGYRGTVAKYGYWGQGTQVTVSS
polyreactivity (PSR sort gate): low polyreactivity

QVQLLDSGGGLVQAGGSLRLSCAASGRTIYYYAMGWYRQAPGKEREFVAAIYWHGGSTYYAESVKGRFTISRDNAKNTVYFQMNSLKPEDTAVYYCAAERYDRVGFDYWGQGTQVTVSS
polyreactivity (PSR sort gate): low polyreactivity

QVQLLESGAGLVQAGGSLRLSCADSGTFYGYAMGWYRQAPGKERELVAAITWSGGSTYYADSVKGRFTISRDNSKNTVYLQMISLKPEDTAVYYCAASLYSGYDSWGQGTQVTVSS
polyreactivity (PSR sort gate): low polyreactivity

QVQLLESGGGIVQAGGSLRLSCAASGRIFVPYAMGWYRQAPGKERELVAAISGRGDSTYYADSVKGRFTISRDNAKNSVYLQMNSLKPEDTAVYYCAKYRPYYTPSYWSRYDYWGQGTQVSVSS
polyreactivity (PSR sort gate): high polyreactivity

QVQLLESGGGIVQAGGSLRLSCAASGSTYVIYDMVWYRQAPGKERELVAVITIIGGSTYYADSVKGRFTISRDNAKNTVYLQMISLKPEDTAVYYCNANVIQDYPNYDYWGQGTLVTVSS
polyreactivity (PSR sort gate): low polyreactivity

QVQLLESGGGLDQAGGSLRLSSAASGRTFGRNAMGWYRQAPGERELVAVISRGGSTYYADSVKGRFTISRDNAKNTVYLQMNSLKPEDTAVYYCNADTVYTRTAPYDYWGQGTQVTVSS
polyreactivity (PSR sort gate): low polyreactivity

QVQLLESGGGLFQAGGSLRLSCAASGLTFYRYAMGWYRKAPGKERELVAAISFSGGSTYYADSVKGRFTISRDNAKNTVYLQMNSLKPEDTAVYYCAASSYPYGYDYWGQGTQVTVSS
polyreactivity (PSR sort gate): high polyreactivity

QVQLLESGGGLVKAGGSLRLSCAASGFTFYRYAMGWYRQAPGKERELVATINYSGGGTYYADSVKGRFTISRDNAKHTVYLQMNSLKPEDTAVYDCAAEDFDYAVLYDYWGQGTQVTVSS
polyreactivity (PSR sort gate): high polyreactivity

QVQLLESGGGLVPAGGSLRLSWAASGSTLYDYTMGWYRQAPGKERELVAAIRVSGARTFYADSVKGRFTISRDNAKNTVYLQRNSLKPEDTAVYYCAARWYIANPLSPSDYWGQGTQVTVSS
polyreactivity (PSR sort gate): low polyreactivity

QVQLLESGGGLVQAGGILRLSCSASGITFSVYDMGCYRQAPGKERELVASISSGGTSTYYADSVKGRFTISRDNAKNTVYFQMNSLKPEDTAVYYGAAYSYFNGDQYSYDYLGQGTQVTVSS
polyreactivity (PSR sort gate): low polyreactivity
